{"source": "paper PMC4662854", "about": "“Structure and function of the N‐terminal domain of the human mitochondrial calcium uniporter” (EMBO Reports, 2015)", "proteins": {"B1": {"name": "MCU NTD-E (extended N-terminal domain of MCU, residues 75-185) (domain or fragment, human, UniProt Q8NE86-1 75-185, looked up)", "chain": "VTVVYQNGLPVISVRLPSRRERCQFTLKPISDSVGVFLRQLQEEDRGIDRVAIYSPDGVRVAASTGIDLLLLDDFKLVINDLTYHVRPPKRDLLSHENAATLNDVKTLVQQ", "notes": "mitochondrial calcium uniporter (MCU), human, NP_612366, residues 75-185; In the crystal residues 183-185 were not modelled and the imidazole ring of His170 is possibly modified by unidentified adducts; source: purified (Ni-NTA, SEC on Superdex 75) by a procedure similar to that of T4 lysozyme-MCU NTD; cloned into pColdII"}}, "target": "the molecule itself", "assay": "cross-linking; glutaraldehyde cross-linking of MCU NTD-E in solution, in PBS and in crystallization conditions", "data": [{"protein": "B1", "values": [{"measurement": "binding result", "value": "binds"}]}]}
